Measured values taken from patent US20220323583A1 (MacroGenics, published 2022).

Tests used:
[1] = molecular target: human CD123 on target cell lines (Kasumi-3, Molm13, THP-1, TF-1, RS4-11) (human, UniProt P26951 19-378); assay: cell-based or functional assay
Cynomolgus CD123-His = molecular target: T1, Cynomolgus CD123-His (cynomolgus monkey); assay: kinetic binding measurement, method not stated
T1 construct: Only the label 'Cynomolgus CD123-His' is printed; also called cynomolgus monkey CD123

Human CD123-His = molecular target: T2, Human CD123-His (human, UniProt P26951 19-305, limits assumed); assay: kinetic binding measurement, method not stated
T2 construct: Only the label 'Human CD123-His' is printed; also called interleukin 3 receptor alpha; IL-3Ra; not shown: His tag
T2 sequence (looked up): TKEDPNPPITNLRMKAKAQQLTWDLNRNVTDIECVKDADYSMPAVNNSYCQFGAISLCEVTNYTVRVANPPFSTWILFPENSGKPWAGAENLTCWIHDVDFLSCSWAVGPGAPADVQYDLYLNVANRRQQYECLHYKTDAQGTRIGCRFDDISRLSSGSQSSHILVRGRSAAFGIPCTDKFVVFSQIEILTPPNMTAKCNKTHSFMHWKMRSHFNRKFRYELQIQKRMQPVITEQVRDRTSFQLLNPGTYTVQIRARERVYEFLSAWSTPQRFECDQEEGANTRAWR

B1: DART-A, sequence-optimized CD123×CD3 bispecific diabody (bispecific antibody)
chain 1: QAVVTQEPSLTVSPGGTVTLTCRSSTGAVTTSNYANWVQQKPGQAPRGLIGGTNKRAPWTPARFSGSLLGGKAALTITGAQAEDEADYYCALWYSNLWVFGGGTKLTVLGGGGSGGGGEVQLVQSGAELKKPGASVKVSCKASGYTFTDYYMKWVRQAPGQGLEWIGDIIPSNGATFYNQKFKGRVTITVDKSTSTAYMELSSLRSEDTAVYYCARSHLLRASWFAYWGQGTLVTVSSGGCGGGEVAALEKEVAALEKEVAALEKEVAALEK
chain 2: DFVMTQSPDSLAVSLGERVTMSCKSSQSLLNSGNQKNYLTWYQQKPGQPPKLLIYWASTRESGVPDRFSGSGSGTDFTLTISSLQAEDVAVYYCQNDYSYPYTFGQGTKLEIKGGGSGGGGEVQLVESGGGLVQPGGSLRLSCAASGFTFSTYAMNWVRQAPGKGLEWVGRIRSKYNNYATYYADSVKDRFTISRDDSKNSLYLQMNSLKTEDTAVYYCVRHGNFGNSYVSWFAYWGQGTLVTVSSGGCGGGKVAALKEKVAALKEKVAALKEKVAALKE
notes: Two chains covalently bonded by a disulfide bond, no Fc; a second species lacks the C-terminal lysine; also called CD123×CD3 diabody; CD123 × CD3 Bi-Specific Diabodies
With B1 the “EC50 of redirected killing, E:T = 10:1, Kasumi-3 target cells” value [1] was 0.01 ng/mL, the “EC50 of redirected killing, E:T = 10:1, Molm13 target cells” value [1] was 0.18 ng/mL and the “EC50 of redirected killing, E:T = 10:1, RS4-11 target cells” value [1] was 0.5 ng/mL. The “EC50 of redirected killing, E:T = 10:1, TF-1 target cells” value [1] was 0.46 ng/mL, the “EC50 of redirected killing, E:T = 10:1, THP-1 target cells” value [1] was 0.24 ng/mL and the Kd (Cynomolgus CD123-His) was 270 pM. The koff (Cynomolgus CD123-His) was 0.0004 s⁻¹, the kon (Cynomolgus CD123-His) was 1.5e+06 M⁻¹ s⁻¹ and the Kd (Human CD123-His) was 130 pM. It also gave a koff (Human CD123-His) of 0.00019 s⁻¹ and a kon (Human CD123-His) of 1.6e+06 M⁻¹ s⁻¹.
